# ± gives the uncertainty stated by the source.
# B1: COUP transcription factor 1, residues 83 to 159; numbered along this chain, P10589 (parent)
# chain: HIECVVCGDKSSGKHYGQFTCEGCKSFFKRSVRRNLTYTCRANRNCPIDQHHRNQCQYCRLKKCLKVGMRREAVQRG
# Variants of: B1
# Test: abundance fitness (aPCA) (normalised: wild type 0, dead -1); higher = more abundant; growth selection in yeast, the domain comes from the species named
# Details: Homo sapiens
row,Variant,abundance fitness
1,HIECVVCGDKSSGKHYGQFTCEGCKSFFKRSVRRNLTYTQRANRNCPIDQHHRNQCQYCRLKKCLKVGMRREAVQRG [C40Q],-0.848 ± 0.17
2,HIECVVCGDKSSGKHYGQFTCEGCKSFFKRSVRRNLTYTYRANRNCPIDQHHRNQCQYCRLKKCLKVGMRREAVQRG [C40Y],-0.704 ± 0.21
3,HIECVVCGDKSSGKHYGQFTCEGCKSFFKRSVRRNLTYTRRANRNCPIDQHHRNQCQYCRLKKCLKVGMRREAVQRG [C40R],-0.864 ± 0.081
4,HIECVVCGDKSSGKHYGQFTCEGCKSFFKRSVRRNLTYTVRANRNCPIDQHHRNQCQYCRLKKCLKVGMRREAVQRG [C40V],-0.861 ± 0.077
5,HIECVVCGDKSSGKHYGQFTCEGCKSFFKRSVRRNLTYTSRANRNCPIDQHHRNQCQYCRLKKCLKVGMRREAVQRG [C40S],-1.08 ± 0.17
6,HIECVVCGDKSSGKHYGQFTCEGCKSFFKRSVRRNLTYTWRANRNCPIDQHHRNQCQYCRLKKCLKVGMRREAVQRG [C40W],-0.712 ± 0.1
7,HIECVVCGDKSSGKHYGQFTCEGCKSFFKRSVRRNLTYTTRANRNCPIDQHHRNQCQYCRLKKCLKVGMRREAVQRG [C40T],-0.503 ± 0.12
8,HIECVVCGDKSSGKHYGQFTCEGCKSFFKRSVRRNLTYTCMANRNCPIDQHHRNQCQYCRLKKCLKVGMRREAVQRG [R41M],0.08 ± 0.078
9,HIECVVCGDKSSGKHYGQFTCEGCKSFFKRSVRRNLTYTCYANRNCPIDQHHRNQCQYCRLKKCLKVGMRREAVQRG [R41Y],0.088 ± 0.15
10,HIECVVCGDKSSGKHYGQFTCEGCKSFFKRSVRRNLTYTCFANRNCPIDQHHRNQCQYCRLKKCLKVGMRREAVQRG [R41F],-0.239 ± 0.2
11,HIECVVCGDKSSGKHYGQFTCEGCKSFFKRSVRRNLTYTCIANRNCPIDQHHRNQCQYCRLKKCLKVGMRREAVQRG [R41I],0.135 ± 0.13
12,HIECVVCGDKSSGKHYGQFTCEGCKSFFKRSVRRNLTYTCKANRNCPIDQHHRNQCQYCRLKKCLKVGMRREAVQRG [R41K],0.301 ± 0.075
13,HIECVVCGDKSSGKHYGQFTCEGCKSFFKRSVRRNLTYTCNANRNCPIDQHHRNQCQYCRLKKCLKVGMRREAVQRG [R41N],0.21 ± 0.17
14,HIECVVCGDKSSGKHYGQFTCEGCKSFFKRSVRRNLTYTCAANRNCPIDQHHRNQCQYCRLKKCLKVGMRREAVQRG [R41A],0.207 ± 0.049
15,HIECVVCGDKSSGKHYGQFTCEGCKSFFKRSVRRNLTYTCDANRNCPIDQHHRNQCQYCRLKKCLKVGMRREAVQRG [R41D],0.085 ± 0.12
16,HIECVVCGDKSSGKHYGQFTCEGCKSFFKRSVRRNLTYTCCANRNCPIDQHHRNQCQYCRLKKCLKVGMRREAVQRG [R41C],0.038 ± 0.099
17,HIECVVCGDKSSGKHYGQFTCEGCKSFFKRSVRRNLTYTCSANRNCPIDQHHRNQCQYCRLKKCLKVGMRREAVQRG [R41S],0.176 ± 0.057
18,HIECVVCGDKSSGKHYGQFTCEGCKSFFKRSVRRNLTYTCGANRNCPIDQHHRNQCQYCRLKKCLKVGMRREAVQRG [R41G],0.188 ± 0.042

row,Variant,abundance fitness
1,HIECVVCGDKSSGKHYGQFTCEGCKSFFKRSVRRNLTYTCWANRNCPIDQHHRNQCQYCRLKKCLKVGMRREAVQRG [R41W],0.145 ± 0.052
2,HIECVVCGDKSSGKHYGQFTCEGCKSFFKRSVRRNLTYTCLANRNCPIDQHHRNQCQYCRLKKCLKVGMRREAVQRG [R41L],0.228 ± 0.054
3,HIECVVCGDKSSGKHYGQFTCEGCKSFFKRSVRRNLTYTCEANRNCPIDQHHRNQCQYCRLKKCLKVGMRREAVQRG [R41E],0.107 ± 0.064
4,HIECVVCGDKSSGKHYGQFTCEGCKSFFKRSVRRNLTYTCHANRNCPIDQHHRNQCQYCRLKKCLKVGMRREAVQRG [R41H],0.051 ± 0.12
5,HIECVVCGDKSSGKHYGQFTCEGCKSFFKRSVRRNLTYTCTANRNCPIDQHHRNQCQYCRLKKCLKVGMRREAVQRG [R41T],-0.068 ± 0.082
6,HIECVVCGDKSSGKHYGQFTCEGCKSFFKRSVRRNLTYTCPANRNCPIDQHHRNQCQYCRLKKCLKVGMRREAVQRG [R41P],0.265 ± 0.055
7,HIECVVCGDKSSGKHYGQFTCEGCKSFFKRSVRRNLTYTCRANVNCPIDQHHRNQCQYCRLKKCLKVGMRREAVQRG [R44V],-0.292 ± 0.048
8,HIECVVCGDKSSGKHYGQFTCEGCKSFFKRSVRRNLTYTCRANINCPIDQHHRNQCQYCRLKKCLKVGMRREAVQRG [R44I],0.038 ± 0.089
9,HIECVVCGDKSSGKHYGQFTCEGCKSFFKRSVRRNLTYTCRANFNCPIDQHHRNQCQYCRLKKCLKVGMRREAVQRG [R44F],-0.207 ± 0.11
10,HIECVVCGDKSSGKHYGQFTCEGCKSFFKRSVRRNLTYTCRANSNCPIDQHHRNQCQYCRLKKCLKVGMRREAVQRG [R44S],-0.024 ± 0.043
11,HIECVVCGDKSSGKHYGQFTCEGCKSFFKRSVRRNLTYTCRANTNCPIDQHHRNQCQYCRLKKCLKVGMRREAVQRG [R44T],0.054 ± 0.055
12,HIECVVCGDKSSGKHYGQFTCEGCKSFFKRSVRRNLTYTCRANKNCPIDQHHRNQCQYCRLKKCLKVGMRREAVQRG [R44K],-0.071 ± 0.064
13,HIECVVCGDKSSGKHYGQFTCEGCKSFFKRSVRRNLTYTCRANNNCPIDQHHRNQCQYCRLKKCLKVGMRREAVQRG [R44N],0.11 ± 0.075
14,HIECVVCGDKSSGKHYGQFTCEGCKSFFKRSVRRNLTYTCRANQNCPIDQHHRNQCQYCRLKKCLKVGMRREAVQRG [R44Q],-0.048 ± 0.065
15,HIECVVCGDKSSGKHYGQFTCEGCKSFFKRSVRRNLTYTCRANDNCPIDQHHRNQCQYCRLKKCLKVGMRREAVQRG [R44D],0.084 ± 0.06
16,HIECVVCGDKSSGKHYGQFTCEGCKSFFKRSVRRNLTYTCRANCNCPIDQHHRNQCQYCRLKKCLKVGMRREAVQRG [R44C],-0.153 ± 0.073
17,HIECVVCGDKSSGKHYGQFTCEGCKSFFKRSVRRNLTYTCRANMNCPIDQHHRNQCQYCRLKKCLKVGMRREAVQRG [R44M],0.057 ± 0.052
